Measurements published in patent US20030143696A1.

Biological target: Soluble human VCAM-1 IgG fusion protein (immobilized on coverslips) (human) (UniProt P19320)
Test: cell-based or functional assay

UniProt P19320, sequence (P19320 25-698 limits assumed): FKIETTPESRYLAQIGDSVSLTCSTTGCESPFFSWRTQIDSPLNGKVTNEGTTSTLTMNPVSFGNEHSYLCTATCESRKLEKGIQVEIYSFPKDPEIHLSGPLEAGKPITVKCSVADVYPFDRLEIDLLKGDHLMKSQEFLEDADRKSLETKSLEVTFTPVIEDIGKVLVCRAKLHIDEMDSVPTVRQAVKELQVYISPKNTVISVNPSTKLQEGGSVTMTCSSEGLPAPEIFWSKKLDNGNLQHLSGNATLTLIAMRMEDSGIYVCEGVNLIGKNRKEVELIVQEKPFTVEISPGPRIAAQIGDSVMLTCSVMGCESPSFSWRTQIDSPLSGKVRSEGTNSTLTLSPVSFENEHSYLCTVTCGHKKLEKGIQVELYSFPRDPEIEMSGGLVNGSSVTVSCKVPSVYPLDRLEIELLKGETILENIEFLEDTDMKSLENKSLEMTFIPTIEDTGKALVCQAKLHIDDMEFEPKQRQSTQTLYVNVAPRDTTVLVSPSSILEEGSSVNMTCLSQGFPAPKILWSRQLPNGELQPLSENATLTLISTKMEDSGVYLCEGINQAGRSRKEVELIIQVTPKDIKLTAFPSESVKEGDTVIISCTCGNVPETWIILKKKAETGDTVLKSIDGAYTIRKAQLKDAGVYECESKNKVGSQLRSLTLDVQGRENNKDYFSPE

VLA-4 integrin (on CD4+ naive and memory T cells) (from UniProt P13612 34-1032; P05556 21-798) (receptor)
memory CD4+ T cell accumulation on immobilized VCAM-1 under flow; inhibition by pretreatment with CKβ-13: 42 to 72%
